B1: Sterol regulatory element-binding protein cleavage-activating protein (Cricetulus griseus (Chinese hamster)), P97260 (parent)
chain: MTLTERLREKISQAFYNHGLLCASYPIPIILFTGLCILACCYPLLKLPLPGTGPVEFSTPVKDYSPPPVDSDHKQGEPSEQPEWYVGAPVAYIQQIFVKSSVSPWHKNLLAVDVFRLPLSRAFQLVEEIRNHVLRDSSGTKSLEEVCLQVTDLLPGLRKLRNLLPEHGCLLLSPGNFWQNDWERFHADPDIIGTIHQHEPKTLQTSATLKDLLFGVPGKYSGVSLYTRKRTVSYTITLVFQRYHAKFLSSLRARLMLLHPSPNCSLRAENLVHVHFKEEIGIAELIPLVTTYIILFAYIYFSTRKIDMVKSKWGLALAAVVTVLSSLLMSVGLCTLFGLTPTLNGGEIFPYLVVVIGLENVLVLTKSVVSTPVDLEVKLRIAQGLSSESWSIMKNVATELGIILIGYFTLVPAIQEFCLFAVVGLVSDFFLQMFFFTTVLSIDIRRMELADLNKRLPPESCLPSAKPVGRPARYERQLAVRPAMPHTITLQPSSFRNLRLPKRLRVIYFLARTRLAQRLIMAGTVVWIGILVYTDPAGLRTYLAAQVTEQSPLGEGSLGPMPVPSGVLPASRPDPAFSIFPPDAPKLPENQTVPGELPEHAAPAEGVHDSRAPEVTWGPEDEELWRRLSFRHWPTLFNYYNITLAKRYISLLPVIPVTLRLNPQEALEGRQPQDGRSAWAPPESLPAGLWEAGPKGPGGTQAHGDITLYKVAALGLAAGIVLVLLLLCLYRVLCPRNYGQPGGGAGRRRRGELPCDDYGYAPPETEIVPLVLRGHLMDIECLASDGMLLVSCCLAGQVCVWDAQTGDCLTRIPRPGSRRDSCGGGAFETQENWERLSDGGKTSPEEPGESPPLRHRPRGPPQPALFGDQPDLTCLIDTNFSVQLPPEPTQPEPRHRAGCGRARDSGYDFSRLVQRVYQEEGLAAVRMPALRPPSPGSPLPQASQEDGAAPEKGSPPLAWAPSTAGSIWSLELQGNLIVVGRSSGRLEVWDAIEGVLCCSNDEVSSGITALVFLDRRIVAARLNGSLDFFSLETHTSLSPLQFRGTPGRGSSPSSSVYSSSNTVACHLTHTVPCAHQKPITALRAAAGRLVTGSQDHTLRVFRLEDSCCLFTLQGHSGAITTVYIDQTMVLASGGQDGAICLWDVLTGSRVSHTFAHRGDVTSLTCTTSCVISSGLDDLINIWDRSTGIKLYSIQQDLGCGASLGVISDNLLVTGGQGCVSFWDLNYGDLLQTVYLGKNSEAQPARQILVLDNAAIVCNFGSELSLVYVPSVLEKLD
partner: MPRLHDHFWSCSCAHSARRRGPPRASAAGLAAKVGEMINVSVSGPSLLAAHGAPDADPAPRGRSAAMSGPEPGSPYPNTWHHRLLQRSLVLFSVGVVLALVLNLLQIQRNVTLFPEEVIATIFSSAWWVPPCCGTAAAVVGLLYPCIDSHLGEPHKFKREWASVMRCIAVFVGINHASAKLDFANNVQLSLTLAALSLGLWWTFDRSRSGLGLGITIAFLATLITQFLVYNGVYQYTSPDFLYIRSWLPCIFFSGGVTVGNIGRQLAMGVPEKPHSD

Variants of: B1
Settings: with insi1_human INSIG1, O15503

| effect of a mutation on the interaction | Variant |
| --- | --- |
| increasing interaction strength | N263E;N590E;N641E |
